Test results reported in US20100037349A1 (University of California, published 2010).
Where a chain is given by its changes, count along the chain named.

T1: Arabidopsis NPR1 protein (Arabidopsis, UniProt P93002 1-593, limits assumed)
T1 construct: In the plant experiments it is the endogenous NPR1; also called NIM1; SAI1
T1 sequence (looked up): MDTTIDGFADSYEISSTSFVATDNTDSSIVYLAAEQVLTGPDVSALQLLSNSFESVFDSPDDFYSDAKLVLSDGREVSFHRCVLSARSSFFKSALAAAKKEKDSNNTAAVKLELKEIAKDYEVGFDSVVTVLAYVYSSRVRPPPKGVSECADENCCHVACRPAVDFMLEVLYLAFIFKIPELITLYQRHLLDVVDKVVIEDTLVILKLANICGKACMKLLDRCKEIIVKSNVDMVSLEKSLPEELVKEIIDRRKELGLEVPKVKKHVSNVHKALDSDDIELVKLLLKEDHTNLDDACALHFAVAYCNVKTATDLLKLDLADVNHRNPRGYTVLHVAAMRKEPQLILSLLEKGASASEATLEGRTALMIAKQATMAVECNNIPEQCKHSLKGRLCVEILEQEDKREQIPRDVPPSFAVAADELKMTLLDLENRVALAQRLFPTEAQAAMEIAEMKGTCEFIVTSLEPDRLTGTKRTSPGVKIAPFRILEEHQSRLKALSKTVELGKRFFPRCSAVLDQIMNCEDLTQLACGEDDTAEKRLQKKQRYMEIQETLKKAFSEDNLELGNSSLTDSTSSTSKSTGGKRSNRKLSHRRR

B1: rice NRR (Negative Regulator of disease Resistance) protein, wild type (other)
chain: MDATTTDATTAKRKRPAASDIADDAPTTVDEVSDAEVEEFYAILRRMRDATRRLGARPPPPRAPAWRPSFSWEDFADAPPKQAPPPPQQPADHERVAENATPPRRPAPGLDLNVEPPSDAPATPRSARAPA
notes: also called wild type NRR
B2: NRR single point mutant E39K (other)
chain: B1 chain with E39K
notes: also called EK

Assays:
[1] = biological target: Arabidopsis NPR1 protein (Arabidopsis) (UniProt P93002); experiment: cell-based or functional assay
Arabidopsis NPR1 protein = biological target: T1, Arabidopsis NPR1 protein; experiment: interaction assay (yeast), summary of the examples

| Molecule | GUS activity from the BG2-Gus reporter after 0.1 mM INA induction (transgenic Arabidopsis line NIAD-22, repeat assay) [1] [fold over WT] | Pst DC3000 bacterial populations at day 4, wild type relative to the NIAD lines [1] [fold] | binding result (Arabidopsis NPR1 protein) |
| --- | --- | --- | --- |
| NIAD fusion protein (N-terminal first 52 amino acids of NRR fused to a VP16 activation domain) (from UniProt P06492 413-490) | 2 | 4 to 5 |  |
| B1 |  |  | binds |
| B2 |  |  | binds |
